Source: article PMC11510292, “Heterobivalent Dual-Target Peptide for Integrin-αvβ3 and Neuropeptide Y Receptors on Breast Tumor” (Pharmaceuticals, 2024)
Read-outs that look alike come from different tables or passages of the source.

Legend:
[1] = Biodistribution in SCID mice bearing MDA-MB-231 xenografts; format: in vivo; conditions: female, mouse, total radioactivity; for tissue uptake per volume at 1 h: whole blood
Procedure: To evaluate the uptake of the radiolabeled peptide by breast tumors, additional biodistribution studies were performed in SCID mice bearing MCF-7 and MDA-MB-231 xenografts (Table 2). […] The tumor uptakes of the radiolabeled conjugate were 9.30 ± 3.25% for MCF-7 and 4.93 ± 1.01% for MDA-MB-231 (Figure 5). The tumor-to-muscle ratios were 5.65 ± 0.94 for the MCF-7 model and 7.78 ± 3.20 for the MDA-MB-231 model (Figure 6).
The animals used in this experiment were provided by the Nuclear and Energy Research Institute (IPEN/CNEN-SP) vivarium. Every effort was made to minimize animal suffering per International Ethical Guidelines. The experimental protocols used in this study were approved by the Scientific Ethics Committee of the IPEN/CNEN-SP. Adult female SCID mice were maintained under controlled environmental conditions (12 h light-dark cycle; constant temperature 21 ± 2 °C), with free access to water and food. Suspensions of cells (5 × 10^6 in 0.1 mL) were subcutaneously injected into the upper back regions of the mice.
(§1) […] Animals were deeply anesthetized and euthanized at the corresponding biodistribution time point. Blood, brain, spleen, heart, stomach, liver, lungs, kidneys, pancreas, muscle, bone, small intestine, and large intestine were collected and weighed. The radioactivity of each organ/tissue was then determined using the above-mentioned automatic gamma counter. The radioactivity was evaluated as the percentage of injected activity per gram of organ/tissue (%IA/g), using the same injected dose activity as a standard. Receptor-blocking studies in tumor models were also carried out by co-administration of 100 μg of cold-conjugated peptide along with radiopeptide.

[2] = Ex vivo biodistribution and blood clearance in healthy Balb/c mice; conditions: for tissue uptake at 5 min / tissue uptake at 0.5 h / tissue uptake at 1 h / tissue uptake at 2 h / tissue uptake at 4 h / tissue uptake at 6 h: mouse, 37 MBq, total radioactivity; for tissue uptake at 5 min: 5 min after IV injection; for tissue uptake at 0.5 h: 30 min after IV injection; for tissue uptake at 1 h: 1 h after IV injection; for tissue uptake at 2 h: 2 h after IV injection; for tissue uptake at 4 h: 4 h after IV injection; for tissue uptake at 6 h: 6 h after IV injection
Procedure: The ex vivo biodistribution analysis performed with healthy Balb/c mice is presented in Figure 2 and Figure 3, and Table 1. Values are expressed as a percentage of injected activity per gram (%IA/g) of tissue and per milliliter (%IA/mL) of blood.
as §1

[3] = bone, mean ± SD n = 5, read-out: Bone uptake
[4] = brain, mean ± SD n = 5, read-out: Brain uptake
[5] = heart, mean ± SD n = 5, read-out: Heart uptake
[6] = lung, mean ± SD n = 5, read-out: Lung uptake
[7] = muscle, mean ± SD n = 5, read-out: Muscle uptake
[8] = pancreas, mean ± SD n = 5, read-out: Pancreas uptake
[9] = spleen, mean ± SD n = 5, read-out: Spleen uptake
[10] = stomach, mean ± SD n = 5, read-out: Stomach uptake

CCCC[C@H](NC(=O)[C@H](CCCNC(=N)N)NC(=O)[C@H](Cc1c[nH]c2ccccc12)NC(=O)[C@H](CSCC(=O)NCCCC[C@@H]1NC(=O)[C@@H](Cc2ccccc2)NC(=O)[C@H](CC(=O)O)NC(=O)CNC(=O)[C@H](CCCNC(=N)N)NC1=O)NC(=O)[C@@H]1CCCN1C(=O)[C@H](CC(N)=O)NC(=O)[C@@H](NC(=O)COCCOCCNC(=O)c1ccc(NN)nc1)[C@@H](C)CC)C(=O)N[C@@H](CCCNC(=N)N)C(=O)N[C@@H](Cc1ccc(O)cc1)C(N)=O [[^99mTc]HYNIC-cRGDfk-NPY, metal not drawn]
tissue uptake at 1 h ([1]; SCID, tumor, MDA-MB231 model, Non-Block, 60 min p.i., 0.1 mL/18.5 MBq IV, n = 5, read-out: Tumor uptake): 4.93 ± 1.01 %ID/g
tissue uptake per volume at 1 h ([1]; SCID, MDA-MB231 model, Block with excess cold peptide, 60 min p.i., 0.1 mL/18.5 MBq IV, n = 3): 1.4 ± 0.21 %ID/mL
tissue uptake per volume at 1 h ([1]; SCID, MDA-MB231 model, Non-Block, 60 min p.i., 0.1 mL/18.5 MBq IV, n = 5): 1.8 ± 1.03 %ID/mL
tissue to tissue ratio at 1 h ([1]; tumor and muscle, 37 MBq, MDA-MB-231 tumor-bearing SCID mice, 1 h after IV injection, n = 5): 7.78 ± 3.2
Blood half-life ([2]; IV, 0.05 mL/18.5 MBq, exponential decay fit of %IA/mL): 23.04 min
decrease in blood activity ([2]; IV, within 1 h): approximately 90%
crossing of blood-brain barrier ([2]; from low brain uptake): did not cross the blood–brain barrier
tissue uptake at 5 min [2, 3]: 3.19 ± 0.76 %ID/g
tissue uptake at 0.5 h [2, 3]: 3.71 ± 1.37 %ID/g
tissue uptake at 1 h [2, 3]: 2.52 ± 1.67 %ID/g
tissue uptake at 2 h [2, 3]: 0.71 ± 0.22 %ID/g
tissue uptake at 4 h [2, 3]: 0.46 ± 0.14 %ID/g
tissue uptake at 6 h [2, 3]: 0.54 ± 0.28 %ID/g
tissue uptake at 5 min [2, 4]: 0.37 ± 0.11 %ID/g
tissue uptake at 0.5 h [2, 4]: 0.22 ± 0.15 %ID/g
tissue uptake at 1 h [2, 4]: 0.12 ± 0.03 %ID/g
tissue uptake at 2 h [2, 4]: 0.07 ± 0.01 %ID/g
tissue uptake at 4 h [2, 4]: 0.04 ± 0.01 %ID/g
tissue uptake at 6 h [2, 4]: 0.04 ± 0.01 %ID/g
tissue uptake at 5 min [2, 5]: 4.3 ± 1.32 %ID/g
tissue uptake at 0.5 h [2, 5]: 3.21 ± 1.22 %ID/g
tissue uptake at 1 h [2, 5]: 1.04 ± 0.23 %ID/g
tissue uptake at 2 h [2, 5]: 0.55 ± 0.07 %ID/g
tissue uptake at 4 h [2, 5]: 0.35 ± 0.12 %ID/g
tissue uptake at 6 h [2, 5]: 0.33 ± 0.09 %ID/g
tissue uptake at 5 min [2, 6]: 9.8 ± 3.16 %ID/g
tissue uptake at 0.5 h [2, 6]: 4.8 ± 2.67 %ID/g
tissue uptake at 1 h [2, 6]: 2.64 ± 0.83 %ID/g
tissue uptake at 2 h [2, 6]: 1.17 ± 0.2 %ID/g
tissue uptake at 4 h [2, 6]: 0.63 ± 0.17 %ID/g
tissue uptake at 6 h [2, 6]: 1.65 ± 2.02 %ID/g
tissue uptake at 5 min [2, 7]: 2.16 ± 0.62 %ID/g
tissue uptake at 0.5 h [2, 7]: 1.5 ± 0.41 %ID/g
tissue uptake at 1 h [2, 7]: 0.68 ± 0.33 %ID/g
tissue uptake at 2 h [2, 7]: 0.39 ± 0.09 %ID/g
tissue uptake at 4 h [2, 7]: 0.22 ± 0.07 %ID/g
tissue uptake at 6 h [2, 7]: 0.21 ± 0.03 %ID/g
tissue uptake at 5 min [2, 8]: 3.39 ± 0.92 %ID/g
tissue uptake at 0.5 h [2, 8]: 2.52 ± 0.89 %ID/g
tissue uptake at 1 h [2, 8]: 1.17 ± 0.45 %ID/g
tissue uptake at 2 h [2, 8]: 0.53 ± 0.1 %ID/g
tissue uptake at 4 h [2, 8]: 0.35 ± 0.12 %ID/g
tissue uptake at 6 h [2, 8]: 0.34 ± 0.11 %ID/g
tissue uptake at 5 min [2, 9]: 6.06 ± 2.9 %ID/g
tissue uptake at 0.5 h [2, 9]: 6.14 ± 2.29 %ID/g
tissue uptake at 1 h [2, 9]: 3.41 ± 1.17 %ID/g
tissue uptake at 2 h [2, 9]: 2.22 ± 0.37 %ID/g
tissue uptake at 4 h [2, 9]: 1.69 ± 0.34 %ID/g
tissue uptake at 6 h [2, 9]: 1.98 ± 0.63 %ID/g
tissue uptake at 5 min [2, 10]: 8.05 ± 2.56 %ID/g
tissue uptake at 0.5 h [2, 10]: 7.17 ± 1.38 %ID/g
tissue uptake at 1 h [2, 10]: 3.97 ± 0.78 %ID/g
tissue uptake at 2 h [2, 10]: 2.62 ± 0.68 %ID/g
tissue uptake at 4 h [2, 10]: 1.81 ± 0.5 %ID/g
tissue uptake at 6 h [2, 10]: 1.79 ± 0.58 %ID/g
